From PMC5924885 (Proceedings of the National Academy of Sciences of the …, 2018)

Target: Akt1 kinase domain (Akt1^KD) (human, UniProt P31749 144-472, exclusively monophosphorylated, predominantly in the turn motif (T450))
Assay: fluorescence polarisation

Akt1 kinase domain (Akt1^KD), sequence (P31749 144-472): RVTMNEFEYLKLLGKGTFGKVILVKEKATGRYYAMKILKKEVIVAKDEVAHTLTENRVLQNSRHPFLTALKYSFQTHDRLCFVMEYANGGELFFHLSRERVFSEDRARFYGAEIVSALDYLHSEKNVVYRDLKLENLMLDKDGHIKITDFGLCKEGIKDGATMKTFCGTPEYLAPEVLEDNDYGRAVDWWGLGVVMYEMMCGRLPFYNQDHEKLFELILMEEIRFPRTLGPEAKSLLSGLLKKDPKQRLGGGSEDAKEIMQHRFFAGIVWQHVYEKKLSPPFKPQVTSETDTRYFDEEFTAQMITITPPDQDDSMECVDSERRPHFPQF

Kd: 7 µM
B1: Atto488-labeled Akt1 PH domain (Akt1^1-120 T101C) (domain or fragment, human, UniProt P31749 1-120, looked up)
chain: MSDVAIVKEGWLHKRGEYIKTWRPRYFLLKNDGTFIGYKERPQDVDQREAPLNNFSVAQCQLMKTERPRPNTFIIRCLQWTTVIERTFHVETPEEREEWTCAIQTVADGLKKQEEEEMDF
modifications: Atto488 (maleimide) label, about 50% labeling efficiency
